Bridges are numbered along the chain shown (N, C = ends).
Assays:
Normal human fibroblasts [1] = experiment: Clonogenic assay with normal human fibroblasts under ionizing radiation; assay type: cell-based; settings: for radioprotective effect compared with complete BBI and the other peptides (clonogenic assay): single dose of 4 Gy, peptides 80 μM, complete BBI 10 μM, FIG. 5; for influence on survival of the cells without irradiation (clonogenic assay): 0 Gy, 10 μM, 16 h incubation, FIG. 1
Description: The examination of the radioprotective effect of BBI and of modified forms of BBI was performed as a so-called clonogenic assay, which is described, for example, in K. Dittmann et al., Radiotherapy and Oncology 34 (1995), pages 137-143, and is explained briefly below.
(§1) Normal human fibroblasts were cultivated in Dulbecco's Modified Eagles Medium (DMEM) with 10% fetal calf serum under standard conditions. At each cell passage the number of cells was counted, and the cells were seed with a density of 2×10^4/cm^2 when subcultures were set up.
(§2) For the clonogenic assay, secondary fibroblasts were trypsinated with 0.05% trypsin and 0.1 EDTA, and seed at a cell density of 50 cells per cm^2 into six-well tissue culture dishes. The cells were cultivated with 2 ml DMEM with 20% fetal calf serum per well.
(§3) After 24 hours the medium was removed and the cells were incubated for 16 hours either in additive-free control mediums (“0” in the Figures) or in medium that contained 10 μM of either BBI or a modified BBI form or a BBI fragment. The nonapeptides and heptapeptide according to the present invention (see Example 3) were used at a concentration of 80 μM.
This was followed by irradiation with ionizing radiation, the energy dose being either 2 or 4 gray (Gy). This energy dose corresponds to the entire converted radiation energy given in mass unit Joule/kg=(gray). A 6 MeV linear accelerator (Mevatron, Siemens) was used for irradiation.
(§4) The cells were then cultivated for a further eight days in BBI-free culture medium in order to allow colonies to form. The cells were then fixed, stained, and counted; in the Figures, “K” indicates the absolute number of clones counted.
(§5) A clone is a colony or a cell cluster resulting from the division of one cell during the eight-day cultivation period. The number of clones corresponds to the degree to which the human fibroblasts survived the irradiation. This will therefore also be referred to hereinafter as the “clonogenic survival” of the cells. If many cells die when the cells are irradiated, then only a few clones will form after eight days; if many cells survive, then many clones may be counted after eight days of cultivation. The clonogenic survival of the cells after irradiation is thus a direct indication of the radioprotective effect of the BBI product being used.

TPCK-treated trypsin = molecular target: T1, TPCK-treated trypsin (Bos taurus, UniProt P00760); experiment: Protease inhibition test, trypsin; assay type: biochemical; settings: FIG. 8
T1 sequence (P00760 24-246): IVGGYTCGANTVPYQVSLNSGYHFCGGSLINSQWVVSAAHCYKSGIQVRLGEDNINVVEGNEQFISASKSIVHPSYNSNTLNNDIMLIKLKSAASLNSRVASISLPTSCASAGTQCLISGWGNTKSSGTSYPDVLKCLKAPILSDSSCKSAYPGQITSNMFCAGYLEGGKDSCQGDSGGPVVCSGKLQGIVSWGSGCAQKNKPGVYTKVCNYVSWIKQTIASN
Description: (§6) A batch containing 50 μl TLCK-treated chymotrypsin (0.1 mg/ml) was incubated for 10 minutes in 12.5% DMSO and 87.5% PBS with 50 μl of a solution having BBI (BBI), reduced BBI (BBI-R), or reduced and alkylated BBI (BBI-A) together with 50 μl PBS and 50 μl of the chymotrypsin substrate acetyl-A-A-P-F-pNa (0.5 mg/ml, of Bachem Heidelberg, Germany). The colored reaction product was detected at 405 nm in a spectrophotometer.
If inhibition of the protease trypsin (see Example 4, FIG. 8) was to be determined, TPCK-treated trypsin (0.1 mg/ml) and the peptide CBZ-R-pNa (1 mg/ml) as substrate were used, and the test was otherwise performed as described.

[2] = molecular target: TLCK-treated chymotrypsin (Bos taurus, UniProt P00766); experiment: Protease inhibition test, chymotrypsin; assay type: biochemical
Description: as §6
A batch without BBI (0) was run as control, and its measured value was taken as 100% chymotrypsin activity (% CH). The blank value with buffer alone is labeled “-” and indicates the cuvette and buffer solution background.

human skin fibroblasts = experiment: Clonogenic assay with human skin fibroblasts under UV-B irradiation; assay type: cell-based; settings: UV-B radiation at 100 J/m^2, FIG. 6; for effect on clonogenic survival, further increase over that of complete BBI / effect on clonogenic survival compared with complete BBI: peptides 80 μM vs BBI 10 μM; for increase in clonogenic survival of the human skin fibroblasts compared to the untreated cells: BBI 10 μM, peptides 80 μM
Description: as §1, §2, §3, §4, §5
Once again a clonogenic assay was performed, using complete BBI or the four peptides P1 through P4.
In this case irradiation was performed with UV-B radiation at 100 J/m^2.

[3] = molecular target: chymotrypsin (TLCK-treated); experiment: cell-based or functional assay
trypsin (TPCK-treated) = experiment: cell-based or functional assay
Normal human fibroblasts [4] = settings: publication of Dittmann et al.; cited from earlier work
[5] = FIG. 2, control without BBI = 100% chymotrypsin activity

Peptide P3: nonapeptide SEQ ID NO: 1, terminal cysteine residues not crosslinked; acetyl and amide protective groups (Ac-CALSYPAQC-NH2; cysteine pairing not given here)
radioprotective effect compared with complete BBI and the other peptides (clonogenic assay) (Normal human fibroblasts [1]): even more pronounced radioprotective effect than peptides P2 (heptapeptide) and P4
inhibition of the activity of trypsin (TPCK-treated trypsin; 0.1 mM): no effect on the activity of trypsin
inhibition of chymotrypsin activity ([2]; 0.1 mM, FIG. 7): only a few percent or not at all
effect on clonogenic survival, further increase over that of complete BBI (human skin fibroblasts): 20%

Peptide P4: nonapeptide SEQ ID NO: 2 (serine to valine exchange), terminal cysteines not crosslinked; acetyl and amide protective groups (Ac-CALVYPAQC-NH2; cysteine pairing not given here)
inhibition of the activity of trypsin (TPCK-treated trypsin; 0.1 mM): no effect on the activity of trypsin
inhibition of chymotrypsin activity ([2]; 0.1 mM, FIG. 7): only a few percent or not at all
increase in clonogenic survival of the human skin fibroblasts compared to the untreated cells (human skin fibroblasts): significantly increased
effect on clonogenic survival compared with complete BBI (human skin fibroblasts): less of an effect than complete BBI

Peptide P2: heptapeptide SEQ ID NO: 3, no cysteine residues, linear; acetyl and amide protective groups (Ac-ALSYPAQ-NH2)
inhibition of the activity of trypsin (TPCK-treated trypsin; 0.1 mM): no effect on the activity of trypsin
inhibition of chymotrypsin activity ([2]; 0.1 mM, FIG. 7): only a few percent or not at all
effect on clonogenic survival, further increase over that of complete BBI (human skin fibroblasts): 20%

Peptide P1: nonapeptide SEQ ID NO: 1, terminal cysteine residues crosslinked with a disulfide bond; acetyl and amide protective groups (Ac-CALSYPAQC-NH2; disulfide 1-9; SMILES CC(=O)N[C@H]1CSSC[C@@H](C(N)=O)NC(=O)[C@H](CCC(N)=O)NC(=O)[C@H](C)NC(=O)[C@@H]2CCCN2C(=O)[C@H](Cc2ccc(O)cc2)NC(=O)[C@H](CO)NC(=O)[C@H](CC(C)C)NC(=O)[C@H](C)NC1=O)
radioprotective effect compared with complete BBI and the other peptides (clonogenic assay) (Normal human fibroblasts [1]): even more pronounced radioprotective effect than peptides P2 (heptapeptide) and P4
inhibition of the activity of trypsin (TPCK-treated trypsin; 0.1 mM): no effect on the activity of trypsin
inhibition of chymotrypsin activity ([2]; 0.1 mM, FIG. 7): only a few percent or not at all
effect on clonogenic survival compared with complete BBI (human skin fibroblasts): just as pronounced an effect as the addition of complete BBI

B1: Bowman-Birk Protease Inhibitor (BBI), complete (protein, soybean, UniProt P01055 40-110, looked up)
chain: DDESSKPCCDQCACTKSNPPQCRCSDMRLNSCHSACKSCICALSYPAQCFCVDITDFCYEPCKPSEDDKEN
inhibition of chymotrypsin activity (substrate acetyl-A-A-P-F-pNa, 405 nm) [3]: 80%
inhibition of chymotrypsin activity at 0.05 mM BBI [3]: 80%
inhibition of chymotrypsin activity at 0.1 mM BBI [3]: 90%
inhibition of trypsin activity at 0.05 mM BBI (substrate CBZ-R-pNa) (trypsin (TPCK-treated)): > 90%
inhibition of trypsin activity at 0.1 mM BBI (substrate CBZ-R-pNa) (trypsin (TPCK-treated)): > 90%

B2: reduced BBI (BBI-R) (protein, soybean, UniProt P01055 40-110, looked up)
chain: DDESSKPCCDQCACTKSNPPQCRCSDMRLNSCHSACKSCICALSYPAQCFCVDITDFCYEPCKPSEDDKEN
modifications: pretreated with dithiothreitol (DTT) so that all the disulfide bonds in the BBI were cleaved (cysteines reduced)
inhibition of chymotrypsin activity (substrate acetyl-A-A-P-F-pNa, 405 nm) [3]: 30%

B3: Bowman-Birk Protease Inhibitor (protein)
chain: DDESSKPCCDQCACTKSNPPQCRCSDMRLNSCHSACKSCICALSYPAQCFCVDITDFCYEPCKPSEDDKEN
notes: complete BBI (from Sigma Biochemicals)
influence on survival of the cells without irradiation (clonogenic assay) (Normal human fibroblasts [1]): does not influence survival of the cells within experimental error
radiation-induced mortality of cultivated human fibroblasts (Normal human fibroblasts [4]): decreases the radiation-induced mortality
inhibition of the activity of trypsin (TPCK-treated trypsin; 0.05 mM): more than 90%
inhibition of the activity of trypsin (TPCK-treated trypsin; 0.1 mM): more than 90%
inhibition of chymotrypsin activity ([2]; 0.05 mM, FIG. 7): 80%
inhibition of chymotrypsin activity ([2]; 0.1 mM, FIG. 7): 90%
inhibition of chymotrypsin activity [2, 5]: 80%
increase in clonogenic survival of the human skin fibroblasts compared to the untreated cells (human skin fibroblasts): approximately 40%

B4: BBI-A: BBI first reduced, cysteine residues then alkylated with iodoacetamide to prevent reoxidation (protein)
chain: DDESSKPCCDQCACTKSNPPQCRCSDMRLNSCHSACKSCICALSYPAQCFCVDITDFCYEPCKPSEDDKEN
influence on survival of the cells without irradiation (clonogenic assay) (Normal human fibroblasts [1]): does not influence survival of the cells within experimental error
inhibition of chymotrypsin activity [2, 5]: no longer capable of inhibiting chymotrypsin activity

B5: BBI-R: complete BBI pretreated with the reducing agent dithiothreitol (DTT), so that all the disulfide bonds were cleaved (protein)
chain: DDESSKPCCDQCACTKSNPPQCRCSDMRLNSCHSACKSCICALSYPAQCFCVDITDFCYEPCKPSEDDKEN
modifications: cyclised or stapled
notes: complete BBI pretreated with the reducing agent dithiothreitol (DTT), so that all the disulfide bonds were cleaved
influence on survival of the cells without irradiation (clonogenic assay) (Normal human fibroblasts [1]): does not influence survival of the cells within experimental error
inhibition of chymotrypsin activity [2, 5]: about 30%
